Laboratory results taken from paper PMC10914487, “Interaction of human dendritic cell receptor DEC205/CD205 with keratins” (The Journal of Biological Chemistry, 2024).
Like-named read-outs stand apart in the source and are kept apart here.

T1: CysR∼CTLD3-Fc of DEC205 (human, UniProt O60449 28-627)
T1 construct: signal peptide in the construct; DEC205 (CD205, Ly75), human, CysR∼CTLD3 fragment, residues M1-S627; Human Fc homodimeric fragment with 6xHis at its C-termini fused to the C-terminus of CysR∼CTLD3; Used for Western blot (overlay) assays and ELISA; also called CysR∼CTLD3 fragment; CysR-CTLD3 fragment; source: High-Five insect cells (baculovirus made in Sf9), from culture supernatant, purified …
T1 sequence (looked up): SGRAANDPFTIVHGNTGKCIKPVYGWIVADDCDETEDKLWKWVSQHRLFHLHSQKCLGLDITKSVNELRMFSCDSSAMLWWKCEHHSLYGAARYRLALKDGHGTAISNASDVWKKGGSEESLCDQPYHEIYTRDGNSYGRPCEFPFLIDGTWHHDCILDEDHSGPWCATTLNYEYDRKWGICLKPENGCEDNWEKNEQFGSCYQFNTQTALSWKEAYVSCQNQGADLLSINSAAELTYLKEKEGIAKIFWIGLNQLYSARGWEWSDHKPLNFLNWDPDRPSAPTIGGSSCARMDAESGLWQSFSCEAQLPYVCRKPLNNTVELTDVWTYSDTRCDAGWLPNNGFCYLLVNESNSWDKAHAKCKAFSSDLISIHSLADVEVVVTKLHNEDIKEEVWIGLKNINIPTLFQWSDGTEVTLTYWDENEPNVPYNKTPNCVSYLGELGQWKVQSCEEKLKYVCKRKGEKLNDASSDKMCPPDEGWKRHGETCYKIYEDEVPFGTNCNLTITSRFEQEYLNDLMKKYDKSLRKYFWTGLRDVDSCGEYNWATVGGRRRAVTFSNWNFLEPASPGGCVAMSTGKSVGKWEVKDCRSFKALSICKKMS

T2: CysR∼CTLD3-GFP fragment of DEC205 (wild type) (human, UniProt O60449 28-627)
T2 construct: signal peptide in the construct; DEC205 (CD205, Ly75), human, CysR∼CTLD3 fragment, residues M1-S627; Used for flow cytometry; also called CysR-CTLD3 fragment; not shown: GFP, C-terminal, kept
T2 sequence (looked up): T1 sequence (looked up)

T3: Human keratin 10 C-terminal tail fragment K10-T1 (residue G461-Y584) (human, UniProt P13645 461-584)
T3 chain: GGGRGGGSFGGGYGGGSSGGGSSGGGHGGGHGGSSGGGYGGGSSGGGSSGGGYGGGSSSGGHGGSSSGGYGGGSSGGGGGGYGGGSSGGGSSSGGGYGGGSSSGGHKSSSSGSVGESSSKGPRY

T4: Human keratin 1 tail region K1-T1 (residue E490-R644) (human, UniProt P04264 490-644)
T4 chain: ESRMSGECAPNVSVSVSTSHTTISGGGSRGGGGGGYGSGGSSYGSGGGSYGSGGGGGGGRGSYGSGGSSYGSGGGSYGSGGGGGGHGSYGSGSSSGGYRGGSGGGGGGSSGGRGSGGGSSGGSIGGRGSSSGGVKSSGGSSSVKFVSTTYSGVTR

B1: K1-T2 (I512-G521: ISGGGSRGGG), SUMO fusion (peptide)
chain: ISGGGSRGGG
notes: keratin 1 (K1), human, tail, residues I512-G521; Expressed and purified for ELISA and flow cytometry; source: E. coli BL21(DE3), pET28a, purified (Ni-NTA)
B2: K10-T5 (residue G492-G520), SUMO fusion (peptide, UniProt P13645 492-520, looked up)
chain: GGSSGGGYGGGSSGGGSSGGGYGGGSSSG
notes: keratin 10 (K10), human, tail, residues G492-G520; source: E. coli BL21(DE3), pET28a, purified (Ni-NTA); not shown: SUMO, N-terminal, kept
B3: K10-T8 (residue G492-G506), SUMO fusion (peptide, UniProt P13645 492-506, looked up)
chain: GGSSGGGYGGGSSGG
notes: keratin 10 (K10), human, tail, residues G492-G506; source: E. coli BL21(DE3), pET28a, purified (Ni-NTA); not shown: SUMO, N-terminal, kept
B4: K10-T11 (residue G507-G516), SUMO fusion (peptide)
chain: GSSGGGYGGG
notes: keratin 10 (K10), human, tail, residues G507-G516; source: E. coli BL21(DE3), pET28a, purified (Ni-NTA); not shown: SUMO, N-terminal, kept
B5: K10-T7 (residue S477-H491), SUMO fusion (peptide, UniProt P13645 477-491, looked up)
chain: SSGGGSSGGGHGGGH
notes: keratin 10 (K10), human, tail, residues S477-H491; source: E. coli BL21(DE3), pET28a, purified (Ni-NTA); not shown: SUMO, N-terminal, kept
B6: chemically synthesized peptide K10-T10 (peptide)
peptide: GSSGGGHGGG
notes: keratin 10 (K10), human, tail, residues G481-G490; source: synthetic peptide
B7: chemically synthesized peptide K10-T11 (peptide)
peptide: GSSGGGYGGG
notes: keratin 10 (K10), human, tail, residues G507-G516; source: synthetic peptide
B8: CysR∼CTLD3-Fc of DEC205 (Fc fusion)
chain: T1 sequence (looked up)
B9: CysR∼CTLD3 fragment of human DEC205 (residues M1-S627) with a C-terminal 6xHis-tag (domain or fragment, UniProt O60449 28-627, looked up)
chain: T1 sequence (looked up)
notes: signal peptide in the construct; DEC205 (CD205, Ly75), human, CysR∼CTLD3 fragment, residues M1-S627; Construct used for crystallisation; a homodimer stands in the asymmetric unit of the P1 crystal form only; also called N-terminal fragment of DEC205; CD205; source: High-Five insect cells (baculovirus made in Sf9), from culture supernatant, purified (Ni-NTA, gel filtration)
B10: K10-T10 (residue G481-G490), SUMO fusion (peptide)
chain: GSSGGGHGGG
notes: keratin 10 (K10), human, tail, residues G481-G490; Form used in the Western blot (overlay) assay and, with SUMO as control, in ELISA; source: E. coli BL21(DE3), pET28a, purified (Ni-NTA); not shown: SUMO, N-terminal, kept
B11: K1-T3 (G532-G541 and G560-G569: GSGGGSYGSG), SUMO fusion (peptide)
chain: GSGGGSYGSG
notes: Expressed and purified for ELISA and flow cytometry; source: E. coli BL21(DE3), pET28a, purified (Ni-NTA)
B12: K10-T9 (residue G507-G520), SUMO fusion (peptide, UniProt P13645 507-520, looked up)
chain: GSSGGGYGGGSSSG
notes: keratin 10 (K10), human, tail, residues G507-G520; source: E. coli BL21(DE3), pET28a, purified (Ni-NTA); not shown: SUMO, N-terminal, kept
B13: K10-T4 (residue G461-H491), SUMO fusion (peptide, UniProt P13645 461-491, looked up)
chain: GGGRGGGSFGGGYGGGSSGGGSSGGGHGGGH
notes: keratin 10 (K10), human, tail, residues G461-H491; source: E. coli BL21(DE3), pET28a, purified (Ni-NTA); not shown: SUMO, N-terminal, kept
B14: K10-T2 (residue G461-G520), SUMO fusion (domain or fragment, human, UniProt P13645 461-520, looked up)
chain: GGGRGGGSFGGGYGGGSSGGGSSGGGHGGGHGGSSGGGYGGGSSGGGSSGGGYGGGSSSG
notes: keratin 10 (K10), human, tail, residues G461-G520; source: E. coli BL21(DE3), pET28a, purified (Ni-NTA); not shown: SUMO, N-terminal, kept
B15: Human keratin 10 C-terminal tail fragment K10-T1 (residue G461-Y584) (domain or fragment, UniProt P13645 461-584, looked up)
chain: T3 chain
notes: keratin 10 (K10), human, C-terminal tail, residues G461-Y584; Expressed without a SUMO tag; source: E. coli BL21(DE3), pET28a, purified (Ni-NTA)
B16: K10-T6 (residue G461-G476), SUMO fusion (peptide, UniProt P13645 461-476, looked up)
chain: GGGRGGGSFGGGYGGG
notes: keratin 10 (K10), human, tail, residues G461-G476; source: E. coli BL21(DE3), pET28a, purified (Ni-NTA); not shown: SUMO, N-terminal, kept

Experiments:
[1] = biological target: B8; assay: ELISA; pH 6.0
[2] = biological target: T1, CysR∼CTLD3-Fc of DEC205; assay: ELISA; keratin fragments coated (∼2 μg per well); CysR∼CTLD3-Fc serially diluted in PBS, 2 mg/ml BSA at preset pH (acidic pH), 2 h, 37 °C; detected with HRP anti-human IgG Fcγ antibody; settings: both partners purified
[3] = biological target: T2, CysR∼CTLD3-GFP fragment of DEC205 (wild …); assay: flow cytometry on cells; inhibition assay: ActD-induced Jurkat cells in PBS pH 6.0 incubated with CysR∼CTLD3-GFP with or without keratin fragments (about 20 μg/ml); the pair meant is keratin fragment and CysR∼CTLD3-GFP; settings: both partners purified
[4] = biological target: T1, CysR∼CTLD3-Fc of DEC205; assay: far-Western, overlay or dot blot; keratin fragments resolved by SDS-PAGE and transferred to PVDF; membrane incubated with CysR∼CTLD3-Fc (10 μg/ml) in PBS, 5% milk, 0.1% Tween 20, pH 6.0 or pH 7.4, 2 h, room temperature; detected with HRP anti-human IgG Fcγ antibody; settings: both partners purified
[5] = biological target: T3, Human keratin 10 C-terminal tail …; assay: ELISA; pH 6.0
[6] = biological target: T4, Human keratin 1 tail region K1-T1 …; assay: ELISA; pH 6.0
[7] = biological target: the molecule itself; assay: crystal structure; CysR∼CTLD3-His crystallised in 0.2 M sodium citrate, 20% PEG3350, pH 6.5-7.4, 18 °C; P1 crystal form with a homodimer in one asymmetric unit
[8] = biological target: B8; assay: ELISA; pH 6.0

With B1 the Kd [1] was 29.1 nM, the binding result [2] was “binds” and the binding result [3] was “binds”.

B2: binds [4].

B3: binds [4].

B4: binds [4].

B5: binds [4].

B6: binds [3].

B7: binds [3].

Binder B8 has a Kd [5] of 11.5 nM and a Kd [6] of 31.2 nM.

B9: binds [7].

For B10, the Kd [8] was 10.9 nM and the binding result [2] was “binds”.

B11 was tested, and the Kd [1] was 28.7 nM, the binding result [2] was “binds” and the binding result [3] was “binds”.

B12: binds [4].

B13: binds [4].

B14: binds [4].

B15: binds [2]; binds [3].

B16: binds [4].
